T1: PTP1B under reducing condition (Homo sapiens, UniProt P18031)
T1 construct: made in house; host or cells: E. coli BL21 (pET19b)
T1 sequence (P18031 3-277 limits assumed): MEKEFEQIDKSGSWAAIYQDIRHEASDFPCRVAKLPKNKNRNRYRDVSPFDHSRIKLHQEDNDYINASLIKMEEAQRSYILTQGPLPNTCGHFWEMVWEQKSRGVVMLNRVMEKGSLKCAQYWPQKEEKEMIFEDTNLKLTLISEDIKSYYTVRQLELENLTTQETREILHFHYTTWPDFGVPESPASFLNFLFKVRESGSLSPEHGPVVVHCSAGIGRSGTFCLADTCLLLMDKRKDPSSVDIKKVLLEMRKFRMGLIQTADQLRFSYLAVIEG

T2: PTP1B (reduced, active) (Homo sapiens, UniProt P18031)
T2 construct: made in house; host or cells: E. coli BL21 (pET19b)
T2 sequence (P18031 3-277 limits assumed): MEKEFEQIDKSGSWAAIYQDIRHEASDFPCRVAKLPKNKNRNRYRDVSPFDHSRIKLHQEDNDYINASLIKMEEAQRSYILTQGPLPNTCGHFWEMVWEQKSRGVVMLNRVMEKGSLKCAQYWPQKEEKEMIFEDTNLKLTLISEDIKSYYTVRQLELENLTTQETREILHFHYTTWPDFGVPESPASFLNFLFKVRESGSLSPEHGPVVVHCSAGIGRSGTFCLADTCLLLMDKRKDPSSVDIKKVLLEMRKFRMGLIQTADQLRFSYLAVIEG

T3: PTP1B-OX (Homo sapiens, UniProt P18031)
T3 construct: made in house; host or cells: E. coli BL21 (pET19b)
T3 sequence (P18031 3-277): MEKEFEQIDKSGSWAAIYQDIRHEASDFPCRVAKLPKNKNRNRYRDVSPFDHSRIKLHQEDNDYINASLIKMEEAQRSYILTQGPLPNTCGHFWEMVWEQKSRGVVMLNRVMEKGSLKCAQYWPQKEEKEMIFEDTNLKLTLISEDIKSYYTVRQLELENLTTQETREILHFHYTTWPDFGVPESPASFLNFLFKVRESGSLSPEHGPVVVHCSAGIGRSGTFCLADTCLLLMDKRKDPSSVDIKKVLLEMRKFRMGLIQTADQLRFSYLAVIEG

T4: endogenous PTP1B-OX (Homo sapiens, UniProt P18031)
T4 construct: endogenous in cells; host or cells: 293T cells (transfected only with the scFv intrabody)
T4 sequence (P18031 1-435): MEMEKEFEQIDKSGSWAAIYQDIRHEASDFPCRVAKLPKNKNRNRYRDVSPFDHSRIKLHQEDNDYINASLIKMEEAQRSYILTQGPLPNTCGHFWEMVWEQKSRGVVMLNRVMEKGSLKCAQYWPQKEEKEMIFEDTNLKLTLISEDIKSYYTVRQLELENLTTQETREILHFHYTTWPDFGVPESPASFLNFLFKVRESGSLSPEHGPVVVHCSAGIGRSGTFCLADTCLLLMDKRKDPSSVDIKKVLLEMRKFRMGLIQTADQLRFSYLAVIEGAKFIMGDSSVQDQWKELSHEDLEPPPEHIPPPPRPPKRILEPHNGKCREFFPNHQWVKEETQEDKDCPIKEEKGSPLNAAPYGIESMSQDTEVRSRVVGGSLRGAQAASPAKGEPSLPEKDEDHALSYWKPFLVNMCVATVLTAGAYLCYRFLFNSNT


Columns and labels:
[1] = target: T1, PTP1B under reducing condition; experiment: In vitro binding assay, purified recombinant PTP1B (37 kDa) and purified scFv, Ni-NTA pull down, reducing condition; details: with 2 mM TCEP; FIG. 9
Protocol: (§1) They established conditions in which PTP1B is reversibly oxidized by H2O2 in solution (FIG. 8). An artificial protein substrate RCML, in which tyrosine was phosphorylated with ^32P using recombinant GST-FER kinase was used in this assay to measure the phosphatase activity. Recombinant PTP (37 kDa) was incubated with increasing concentration (50 μM to 100 mM) of H2O2. A quick buffer exchange was done to remove the H2O2 and reducing agent (TCEP) was added to reactivate the enzyme.
(§2) In the in vitro binding assay, purified PTP was reversibly oxidized with […] followed by a quick buffer exchange to remove H2O2 (FIG. 8). Purified scFv was incubated in molar excess with PTP1B-OX or with PTP under reducing condition (with 2 mM TCEP) in binding buffer (20 mM HEPES, pH 7.4, 300 mM NaCl, 0.05% BSA, 0.05% Tween-20 and 10 mM imidazole) for 2 hours at 4° C. Ni-NTA agarose was added and incubated for one hour at 4° C. Protein complex bound to Ni-NTA agarose beads was pulled down and washed (three times, 5 minutes each, at 4° C.) with binding buffer containing 20 mM imidazole to reduce non-specific binding to the beads. The protein complex was eluted from the Ni-NTA agarose beads with 500 mM imidazole (in binding buffer, pH 7.4) for 15 minutes at 4° C. with gentle shaking. The complex was separated by SDS-PAGE and PTP1B was detected with anti-PTP1B antibody (FG6) and scFv was detected with anti-HA antibody [anti-HA (3F10)-HRP, Roche] by immunoblotting. Eight different scFvs (scFvs 20, 21, 24, 28, 45, 48, 57, and 105), expressed and purified from bacterial cultures were tested by this in vitro binding experiment.

PTP1B (reduced, active) = target: T2, PTP1B (reduced, active); experiment: Direct effect of scFvs/antibodies on PTP1B phosphatase activity (32P-pTyr-RCML substrate); type: biochemical; details: 32P-labeled pTyr-RCML substrate, FIG. 1
Protocol: Applicant's hypothesis was that scFvs that are able to bind to and stabilize the oxidized conformation of PTP1B in solution would inhibit reactivation by reducing agent, but have no direct inhibitory effect on phosphatase activity in assays in vitro. Activity was measured using ^32P-labeled pTyr-Reduced Carboxamidomethylated and Maleylated Lysozyme as substrate. Applicant established conditions in which wild type PTP1B could be reversibly oxidized in vitro. PTP1B was inactivated following addition of H2O2. […] Applicant validated this approach further, by testing the effects of expressing one of the scFvs (scFv45) as a single chain antibody fragment “intrabody” to PTP1B, using 293T cells as the expression system. This intrabody was expressed transiently and then tested for effects on insulin signaling, focusing initially on the tyrosine phosphorylation status of the beta-subunit of the insulin receptor and insulin receptor substrate (IRS-1).
Reduced carboxamidomethylated and maleylated lysozyme (RCML) was labeled with ^32P using recombinant GST-FER kinase to stoichiometries up to 0.8 (mol ^32P incorporated/mol of protein). This ^32P-Labeled phospho-tyrosyl RCML was used as the substrate in the in-solution phosphatase assay for screening the conformation sensor scFvs. Recombinant PTP1B was reversibly oxidized and transiently inactivated with H2O2 (5× molar excess of the protein). […] Purified bacterially expressed scFvs (100× molar excess of PTP1B) were incubated with PTP after H2O2 treatment and its removal and the effect of individual scFv on stabilizing the reversibly oxidized conformation was assessed by the phosphatase assay under reducing condition.
In order to screen the isolated scFvs for those that inhibit reactivation of PTP1B-OX by reducing agent, but have no direct inhibitory effect on phosphatase activity in assays in vitro, the effect of six scFvs (scFv20, scFv34, scFv45, scFv57, scFv64 and scFv106) on PTP1B activity was determined. PTP1B activity was measured using 32P-labeled pTyr-Reduced Carboxamidomethylated and Maleylated Lysozyme as substrate (FIGS. 1 and 2). Addition of the reducing agent TCEP alone had no substantial effect in PTP1B activity was assessed.

PTP1B-OX = target: T3, PTP1B-OX; experiment: In vitro binding assay, purified recombinant PTP1B (37 kDa) and purified scFv, Ni-NTA pull down; details: purified proteins, scFv in molar excess, 2 hours at 4° C.; FIG. 9
Protocol: as §1, §2

endogenous PTP1B-OX = target: T4, endogenous PTP1B-OX; experiment: Intrabody interaction in 293T cells treated with H2O2 (Ni-NTA pull down / anti-PTP1B immunoprecipitation); type: cell-based; details: 1 mM H2O2 5 minutes, FIGS. 11, 12
Protocol: One of the positive candidate scFvs (scFv45) was cloned in pcDNA3.2/V5-GW/D-TOPO expression vector and transiently expressed in mammalian cells as stable intracellular antibody (aka intrabody) (FIG. 10). To detect PTP1B-OX and scFv45 interaction in mammalian cells, scFv45 was overexpressed in 293T cells as described herein (See Example 4) and 48 hours post transfection the cells were serum-starved for 16 hours in growth medium (DMEM, low glucose) without serum (FBS), then incubated with 1 mM H2O2 (in growth medium without serum) for 5 minutes at 37° C. or treated with 20 mM NAC (in growth medium without serum) for 1 hour at 37° C. Cells treated with H2O2 were washed twice with cold (4° C.) PBS and lysed in lysis buffer (25 mM HEPES, pH 7.4, 150 mM NaCl, 0.25% Deoxychloate, 1% TritonX-100, 25 mM NaF, 10 mM MgCl2, 1 mM EDTA, 10% Glycerol, 0.5 mM PMSF, 10 mM Benzamidine, protease inhibitor cocktail). Cells treated with NAC were lysed with lysis buffer containing 2 mM TCEP to ensure a post-lysis reducing environment. Interaction between PTP1B and intrabody45 were tested by pulling down the protein complex from 1 mg of total cell lysate with Ni-NTA agarose or by immunoprecipitating PTP with anti-PTP1B (FG6). For the pull down experiment, Ni-NTA agarose beads were incubated with the lysates (both oxidized and reduced) at 4° C. Protein complex bound to the Ni-NTA agarose beads was pulled down and washed three times; first with lysis buffer containing 20 mM imidazole followed by two more washes with wash buffer (PBS, pH 7.4, 20 mM imidazole, 0.05% BSA, 0.05% Tween-20 and protease inhibitors). Applicant used 20 mM imidazole in the wash buffer to reduce the non-specific binding of proteins with the Ni-NTA agarose beads. The complex was eluted with wash buffer containing 500 mM imidazole with gentle shaking at 4° C. and the eluate was mixed with SDS sample buffer with DTT. For the immunoprecipitation experiments, 1 mg of total cell lystates (both oxidized and reduced) was incubated with anti-PTP1B antibody (FG6) at 4° C. The interacting protein complex was immunoprecipitated after incubating the lysate-antibody mixture with protein A/G Sepharose at 4° C. After immunoprecipitation, Sepharose beads were washed three times; first with lysis buffer followed by two more washes with wash buffer (PBS, pH 7.4, 0.05% BSA, 0.05% Tween-20 and protease inhibitors). The Sepharose beads were then heated at 90° C. in 2×SDS sample buffer with DTT. Proteins from the pulled down or immunoprecipitated complex were separated by SDS-PAGE. PTP was detected with anti-PTP1B antibody (FG6) and the intrabodies were detected with anti-HA (3F10)-HRP antibody [anti-HA (3F10)-HRP, Roche] by immunoblotting.
In the initial in vitro phosphatase screening assay using reversibly oxidized (with H2O2) recombinant PTP1B, Applicant found four different PTP1B-OX specific scFvs (scFv45, scFv57, scFv64 and scFv106) from the initial pool of 12 different scFvs. […] Applicant has also shown that scFv45, expressed as an intrabody in mammalian cells, can bind to endogenous PTP1B-OX but not endogenous PTP under reducing conditions. Further assessment was carried out to identify additional PTP1B-OX-specific intrabodies. Additional scFvs have been subcloned in pcDNA3.2/V5-GW/D-TOPO mammalian expression vector (FIG. 10) from their respective phagemid constructs. After transient overexpression of these scFvs as intrabodies in 293T cells, the interaction between endogenous PTP1B and these intrabodies in both H2O2-treated cells and cells was observed under reducing condition (treated with NAC and lysed with lysis buffer containing TCEP). […] All can be used in the methods and compositions described herein. Additional scFvs, such as some or all of the 137 selected individual scFvs from the library, can be similarly tested by in vitro screening and/or by binding assay in mammalian cells.

Molecule	binding to PTP1B under reducing condition in vitro [1]	direct effect on PTP1B activity (PTP1B (reduced, active))	binding to PTP1B-OX in vitro (PTP1B-OX)	binding of intrabody to endogenous PTP1B-OX (endogenous PTP1B-OX)
scFv20: scFv, SEQ ID NO: 53 (protein) scFv: MKKTAIAIAVALAGFATVAQAALTQPSSVSANLGGIVEITCSGSSGSYGWYQQKSPGSAPVTVIYYNDKRPSNIPSRFSGSGSGSTNTLTIAGVRAEDEAVYYCGNEDSSGAAFGAGTTLTVLGQSSRSSAVTLDESGGGLQTPGGGLSLVCKASGFTFSDYDMFWVRQAPSKGLEFVAAITSSGTGTKYGAAVKGRATISKDNGQRTVRLQLNSLGAEDTGTYYCARSDADSTTWSAGEIDAWGHGTEVIVSSTSGQAGQHHHHHHGAYPYDVPDYAS	no significant binding	no direct inhibition of PTP activity	no significant binding	–
scFv34: scFv, SEQ ID NO: 67 and 163 (protein) scFv: MKKTAIAIAVALAGFATVAQAALTQPSSVSANPGGTVEITCSGSSGSHGWYQQKSPGSAPVTVIYDNTNRPSDIPSRFSGSLSGSTATLTITGVQAEDEAVYYCGSFDTNSDSGYVGIFGARTTLTVLGQSSRSSTETLDDSGGGLQTPGGALSLVCNASGFTFISYDMFWVRQAPGKGLEFVTQINSAGSYTNYGSAVNGRATISRNDGQITVRLQLNDLTADDTGIYFCAESASGYDYSGSDAGDINAWGHGTEVVVSSTSGQAGQHHHHHHGAYPYDVPDYAS	–	no direct inhibition of PTP activity	–	bound weakly to PTP1B-OX

From patent US9074002B2, “PTP1B inhibitors” (Cold Spring Harbor Laboratory, priority 2009, dated 2015)
